Assay results taken from article PMC10427004, “Restoration of energy homeostasis under oxidative stress: Duo synergistic AMPK pathways regulating arginine kinases” (PLOS Genetics, 2023).

Experiments:
[1] = tested on: Nc1ncnc2c1ncn2[C@@H]1O[C@H](COP(=O)(O)OP(=O)(O)OP(=O)(O)O)[C@@H](O)[C@H]1O; experiment: pyruvate kinase / lactate dehydrogenase coupled assay, A340, Lineweaver-Burk; assay type: biochemical, Tribolium castaneum; conditions: 5 mM L-arginine, 20 mM MgCl2, pH 7.5, 30 °C
[2] = tested on: Nc1ncnc2c1ncn2[C@@H]1O[C@H](COP(=O)(O)OP(=O)(O)O)[C@@H](O)[C@H]1O; experiment: hexokinase / glucose-6-phosphate dehydrogenase coupled assay, A340, Lineweaver-Burk; assay type: biochemical, Tribolium castaneum; conditions: 5 mM phospho-L-arginine, 20 mM MgCl2, pH 7.5, 30 °C

## 6×His-TcAK1 (Tribolium castaneum; S129D)
[1]
  Km: 4.5 mM
[2]
  Km: 19.4 mM

## 6×His-TcAK1 (Tribolium castaneum; T247D)
[1]
  Km: 13.0 mM
[2]
  Km: 10.6 mM
